Literature values, collected in patent US20030092000.

Key:
Conditions in all cases: method not stated
[1] = test system: FAD 1A (designed three-finger ZFP) (synthetic)
[2] = test system: FAD 1B (designed three-finger ZFP) (synthetic)
[3] = test system: FAD 4A (designed three-finger ZFP) (synthetic)
[4] = test system: FAD 4B (designed three-finger ZFP) (synthetic)
[5] = test system: FAD 2A (designed three-finger ZFP) (synthetic)
[6] = test system: FAD 3A (designed three-finger ZFP) (synthetic)
[7] = test system: FAD 3B (designed three-finger ZFP) (synthetic)
[8] = test system: FAD 5A (designed three-finger ZFP) (synthetic)

Sequence: GAGGTAGAGG (double strand) [FAD 1 target]
- Kd [1]: 10 nM
- Kd [2]: 10 nM

Sequence: GAGGTGGAAG (double strand) [FAD 4 target]
- Kd [3]: 10 nM
- Kd [4]: 2 nM

Sequence: GTCGTGTGGA (double strand) [FAD 2 target]
- Kd [5]: 100 nM

Sequence: GTTGAGGAAG (double strand) [FAD 3 target]
- Kd [6]: 100 nM
- Kd [7]: 100 nM

Sequence: TAGGTGGTGA (double strand) [FAD 5 target]
- Kd [8]: 10 nM
